Reference: IntAct's records for PubMed 29039417

B1: Isoform 2 of Bardet-Biedl syndrome 7 protein (Homo sapiens), Q8IWZ6-2 (parent)
chain: MDLILNRMDYLQVGVTSQKTMKLIPASRHRATQKVVIGDHDGVVMCFGMKKGEAAAVFKTLPGPKIARLELGGVINTPQEKIFIAAASEIRGFTKRGKQFLSFETNLTESIKAMHISGSDLFLSASYIYNHYCDCKDQHYYLSGDKINDVICLPVERLSRITPVLACQDRVLRVLQGSDVMYAVEVPGPPTVLALHNGNGGDSGEDLLFGTSDGKLALIQITTSKPVRKWEIQNEKKRGGILCIDSFDIVGDGVKDLLVGRDDGMVEVYSFDNANEPVLRFDQMLSESVTSIQGGCVGKDSYDEIVVSTYSGWVTGLTTEPIHKESGPGEELKINQEMQNKISSLRNELEHLQYKVLQERENYQQSSQSSKAKSAVPSFGINDKFTLNKDDASYSLILEVQTAIDNVLIQSDVPIDLLDVDKNSAVVSFSSCDSESNDNFLLATYRCQADTTRLELKIRSIEGQYGTLQAYVTPRIQPKTCQVRQYHIKPLSLHQRTHFIDHDRPMNTLTLTGQFSFAEVHSWVVFCLPEVPEKPPAGECVTFYFQNTFLDTQLESTYRKGEGVFKSDNISTISILKDVLSKEATKRKINLNISYEINEVSVKHTLKLIHPKLEYQLLLAKKVQLIDALKELQIHEGNTNFLIPEYHCILEEADHLQEEYKKQPAHLERLYG
partner: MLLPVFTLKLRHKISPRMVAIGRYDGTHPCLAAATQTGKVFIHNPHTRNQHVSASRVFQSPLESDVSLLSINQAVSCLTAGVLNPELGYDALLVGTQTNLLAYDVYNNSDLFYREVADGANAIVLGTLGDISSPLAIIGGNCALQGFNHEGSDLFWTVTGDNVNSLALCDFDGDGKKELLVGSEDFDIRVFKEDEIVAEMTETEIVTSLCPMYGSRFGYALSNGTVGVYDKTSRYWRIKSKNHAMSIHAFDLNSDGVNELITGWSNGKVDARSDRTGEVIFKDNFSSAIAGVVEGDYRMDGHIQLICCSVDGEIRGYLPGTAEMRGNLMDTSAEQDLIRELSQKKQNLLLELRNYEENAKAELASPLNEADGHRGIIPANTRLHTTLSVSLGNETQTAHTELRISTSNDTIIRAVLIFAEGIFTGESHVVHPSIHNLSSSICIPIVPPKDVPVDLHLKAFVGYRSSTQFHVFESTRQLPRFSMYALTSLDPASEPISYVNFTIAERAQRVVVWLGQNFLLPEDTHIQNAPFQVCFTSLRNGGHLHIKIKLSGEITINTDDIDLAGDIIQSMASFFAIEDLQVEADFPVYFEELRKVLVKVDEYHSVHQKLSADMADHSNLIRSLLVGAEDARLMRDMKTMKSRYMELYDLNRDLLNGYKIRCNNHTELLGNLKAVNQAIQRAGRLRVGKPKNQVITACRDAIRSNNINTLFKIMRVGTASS
B2: Protein PTHB1 (Homo sapiens), Q3SYG4 (parent)
chain: MSLFKARDWWSTILGDKEEFDQGCLCLANVDNSGNGQDKIIVGSFMGYLRIFSPHPAKTGDGAQAEDLLLEVDLRDPVLQVEVGKFVSGTEMLHLAVLHSRKLCVYSVSGTLGNVEHGNQCQMKLMYEHNLQRTACNMTYGSFGGVKGRDLICIQSMDGMLMVFEQESYAFGRFLPGFLLPGPLAYSSRTDSFLTVSSCQQVESYKYQVLAFATDADKRQETEQQKLGSGKRLVVDWTLNIGEQALDICIVSFNQSASSVFVLGERNFFCLKDNGQIRFMKKLDWSPSCFLPYCSVSEGTINTLIGNHNNMLHIYQDVTLKWATQLPHIPVAVRVGCLHDLKGVIVTLSDDGHLQCSYLGTDPSLFQAPNVQSRELNYDELDVEMKELQKIIKDVNKSQGVWPMTEREDDLNVSVVVSPNFDSVSQATDVEVGTDLVPSVTVKVTLQNRVILQKAKLSVYVQPPLELTCDQFTFEFMTPDLTRTVSFSVYLKRSYTPSELEGNAVVSYSRPTDRNPDGIPRVIQCKFRLPLKLICLPGQPSKTASHKITIDTNKSPVSLLSLFPGFASQSDDDQVNVMGFHFLGGARITVLASKTSQRYRIQSEQFEDLWLITNELILRLQEYFEKQGVKDFACSFSGSIPLQEYFELIDHHFELRINGEKLEELLSERAVQFRAIQRRLLARFKDKTPAPLQHLDTLLDGTYKQVIALADAVEENQGNLFQSFTRLKSATHLVILLIALWQKLSADQVAILEAAFLPLQEDTQELGWEETVDAAISHLLKTCLSKSSKEQALNLNSQLNIPKDTSQLKKHITLLCDRLSKGGRLCLSTDAAAPQTMVMPGGCTTIPESDLEERSVEQDSTELFTNHRHLTAETPRPEVSPLQGVSE
partner: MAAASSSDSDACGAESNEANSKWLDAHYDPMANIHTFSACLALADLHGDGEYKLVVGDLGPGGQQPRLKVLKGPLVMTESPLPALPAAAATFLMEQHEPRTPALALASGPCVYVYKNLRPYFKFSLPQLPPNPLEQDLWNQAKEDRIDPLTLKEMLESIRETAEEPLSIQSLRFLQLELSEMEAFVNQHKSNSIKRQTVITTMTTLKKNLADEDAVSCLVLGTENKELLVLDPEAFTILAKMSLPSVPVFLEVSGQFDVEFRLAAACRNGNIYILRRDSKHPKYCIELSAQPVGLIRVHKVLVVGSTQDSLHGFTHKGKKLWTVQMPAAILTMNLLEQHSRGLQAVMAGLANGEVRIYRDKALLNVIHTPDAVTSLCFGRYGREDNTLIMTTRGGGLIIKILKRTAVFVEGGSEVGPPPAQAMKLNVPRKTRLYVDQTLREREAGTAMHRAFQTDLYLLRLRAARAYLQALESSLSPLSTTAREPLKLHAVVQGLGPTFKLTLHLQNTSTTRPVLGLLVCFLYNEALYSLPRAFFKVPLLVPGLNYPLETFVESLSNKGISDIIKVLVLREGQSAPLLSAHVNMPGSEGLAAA

Variants of: B1
Settings: with bbs2_human BBS2, Q9BXC9

Variant | effect of a mutation on the interaction
S556R | with no effect

Variants of: B2
Settings: with bbs1_human BBS1, Q8NFJ9

Variant | effect of a mutation on the interaction
T405A | with no effect
T405E | with no effect
T405K | with no effect
E406A | with no effect
E406K | with no effect
R407A | with no effect
R407E | with no effect
R407K | with no effect
E408A | with no effect
E408K | with no effect
D409A | with no effect
D409E | with no effect
D409K | with no effect
D410A | with no effect
D410E | with no effect
D410K | with no effect
L411A | with no effect
L411E | with no effect
L411K | with no effect
N412A | with no effect
N412E | with no effect
N412K | with no effect

Variant | effect of a mutation on the interaction
V413A | with no effect
V413E | with no effect
V413K | with no effect
S414A | with no effect
S414E | with no effect
S414K | with no effect
V415A | with no effect
V415E | with no effect
V415K | with no effect
V416A | with no effect
V416E | with no effect
V416K | with no effect
V417A | with no effect
V417E | with no effect
V417K | with no effect
S418A | with no effect
S418E | with no effect
S418K | with no effect
P419A | with no effect
P419E | with no effect
P419K | with no effect
N420A | with no effect

Variant | effect of a mutation on the interaction
N420E | with no effect
N420K | with no effect
F421A | with no effect
F421E | with no effect
F421K | with no effect
D422A | with no effect
D422E | with no effect
D422K | with no effect
S423A | with no effect
S423E | with no effect
S423K | with no effect
V424A | with no effect
V424E | with no effect
V424K | with no effect
S425A | with no effect
S425E | with no effect
S425K | with no effect
Q426A | with no effect
Q426E | with no effect
Q426K | with no effect
A427E | with no effect
A427K | with no effect

Variant | effect of a mutation on the interaction
T428A | with no effect
T428E | with no effect
T428K | with no effect
D429A | with no effect
D429E | with no effect
D429K | with no effect
V430A | with no effect
V430E | with no effect
V430K | with no effect
E431A | with no effect
E431K | with no effect
V432A | with no effect
V432E | disrupting interaction strength
V432K | with no effect
G433A | with no effect
G433E | with no effect
G433K | with no effect
T434A | with no effect
T434E | with no effect
T434K | with no effect
D435A | with no effect
D435E | with no effect

Variant | effect of a mutation on the interaction
D435K | with no effect
L436A | with no effect
L436E | with no effect
L436K | with no effect
V437A | with no effect
V437E | with no effect
V437K | with no effect
P438A | with no effect
P438E | with no effect
P438K | with no effect
S439A | with no effect
S439E | with no effect
S439K | with no effect
V440A | with no effect
V440E | with no effect
V440K | with no effect
T441A | with no effect
T441E | with no effect

Second part, the variant after the results:

effect of a mutation on the interaction | Variant
with no effect | T441K
with no effect | V442A
with no effect | V442E
with no effect | V442K
with no effect | K443A
with no effect | K443E
with no effect | V444A
with no effect | V444E
with no effect | V444K
with no effect | T445A
with no effect | T445E
with no effect | T445K
with no effect | L446A
with no effect | L446E
with no effect | L446K
with no effect | Q447A
with no effect | Q447E
with no effect | Q447K
with no effect | N448A
with no effect | N448E
with no effect | N448K
with no effect | R449A
with no effect | R449E
with no effect | R449K
with no effect | V450A
with no effect | V450E
with no effect | V450K

effect of a mutation on the interaction | Variant
with no effect | I451A
with no effect | I451E
with no effect | I451K
with no effect | L452A
with no effect | L452E
with no effect | L452K
with no effect | Q453A
with no effect | Q453E
with no effect | Q453K
with no effect | K454A
with no effect | K454E
with no effect | A455E
with no effect | A455K
with no effect | K456A
with no effect | K456E
with no effect | L457A
with no effect | L457E
with no effect | L457K
with no effect | S458A
with no effect | S458E
with no effect | S458K
with no effect | V459A
disrupting interaction strength | V459E
with no effect | V459K
with no effect | Y460A
with no effect | Y460E
with no effect | Y460K

effect of a mutation on the interaction | Variant
with no effect | V461A
with no effect | V461E
with no effect | V461K
with no effect | Q462A
with no effect | Q462E
with no effect | Q462K
disrupting interaction strength | Q462T
with no effect | P463A
with no effect | P463E
with no effect | P463K
with no effect | P464A
with no effect | P464E
with no effect | P464K
with no effect | L465A
with no effect | L465E
with no effect | L465K
with no effect | E466A
with no effect | E466K
with no effect | L467A
with no effect | L467E
with no effect | L467K
with no effect | T468A
with no effect | T468E
with no effect | T468K
with no effect | C469A
